This data set deals with the molecule itself. Kind of data set: SEC; LCAT alone on triple Superdex 200 Increase, run beside rHDL alone and the cross-linked mixture.

B1: Lecithin:cholesterol acyltransferase (recombinant, expressed in CHO cells) (enzyme, human, UniProt P04180 25-440, looked up)
chain: FWLLNVLFPPHTTPKAELSNHTRPVILVPGCLGNQLEAKLDKPDVVNWMCYRKTEDFFTIWLDLNMFLPLGVDCWIDNTRVVYNRSSGLVSNAPGVQIRVPGFGKTYSVEYLDSSKLAGYLHTLVQNLVNNGYVRDETVRAAPYDWRLEPGQQEEYYRKLAGLVEEMHAAYGKPVFLIGHSLGCLHLLYFLLRQPQAWKDRFIDGFISLGAPWGGSIKPMLVLASGDNQGIPIMSSIKLKEEQRITTTSPWMFPSRMAWPEDHVFISTPSFNYTGRDFQRFFADLHFEEGWYMWLQSRDLLAGLPAPGVEVYCLYGVGLPTPRTYIYDHGFPYTDPVGVLYEDGDDTVATRSTELCGLWQGRQPQPVHLLPLHGIQHLNMVFSNLTLEHINAILLGAYRQGPPASPTASPEPPPPE
notes: Lecithin:cholesterol acyltransferase, human; cross-links to 'LCAT residue 1' (the N-terminus) are reported; Used for all non-cryoEM experiments (cross-linking, SEC, negative-stain EM, activity assays); also called LCAT; human LCAT; source: CHO cells, recombinant, gifted by Alan Remaley
On to B1, for which the binding result was “binds”.

(Values after publication PMC12049944, “Lecithin:cholesterol acyltransferase binds a discontinuous binding site on adjacent apolipoprotein A-I belts in HDL” (Journal of Lipid Research, 2025).)
